Earlier results on one molecule are cited in patent US10507248B2, “Hydrophobic core carrier compositions for delivery of therapeutic agents, methods of making and using the same” (PharmaIn Corporation, priority 2005, dated 2019).

The conditions of the data set: in vivo.

B1: native EGF: native Epidermal Growth Factor with short biological half-life (protein, UniProt P01133 23-1207, looked up)
Pro-epidermal growth factor: PQHWSCPEGTLAGNGNSTCVGPAPFLIFSHGNSIFRIDTEGTNYEQLVVDAGVSVIMDFHYNEKRIYWVDLERQLLQRVFLNGSRQERVCNIEKNVSGMAINWINEEVIWSNQQEGIITVTDMKGNNSHILLSALKYPANVAVDPVERFIFWSSEVAGSLYRADLDGVGVKALLETSEKITAVSLDVLDKRLFWIQYNREGSNSLICSCDYDGGSVHISKHPTQHNLFAMSLFGDRIFYSTWKMKTIWIANKHTGKDMVRINLHSSFVPLGELKVVHPLAQPKAEDDTWEPEQKLCKLRKGNCSSTVCGQDLQSHLCMCAEGYALSRDRKYCEDVNECAFWNHGCTLGCKNTPGSYYCTCPVGFVLLPDGKRCHQLVSCPRNVSECSHDCVLTSEGPLCFCPEGSVLERDGKTCSGCSSPDNGGCSQLCVPLSPVSWECDCFPGYDLQLDEKSCAASGPQPFLLFANSQDIRHMHFDGTDYGTLLSQQMGMVYALDHDPVENKIYFAHTALKWIERANMDGSQRERLIEEGVDVPEGLAVDWIGRRFYWTDRGKSLIGRSDLNGKRSKIITKENISQPRGIAVHPMAKRLFWTDTGINPRIESSSLQGLGRLVIASSDLIWPSGITIDFLTDKLYWCDAKQSVIEMANLDGSKRRRLTQNDVGHPFAVAVFEDYVWFSDWAMPSVMRVNKRTGKDRVRLQGSMLKPSSLVVVHPLAKPGADPCLYQNGGCEHICKKRLGTAWCSCREGFMKASDGKTCLALDGHQLLAGGEVDLKNQVTPLDILSKTRVSEDNITESQHMLVAEIMVSDQDDCAPVGCSMYARCISEGEDATCQCLKGFAGDGKLCSDIDECEMGVPVCPPASSKCINTEGGYVCRCSEGYQGDGIHCLDIDECQLGEHSCGENASCTNTEGGYTCMCAGRLSEPGLICPDSTPPPHLREDDHHYSVRNSDSECPLSHDGYCLHDGVCMYIEALDKYACNCVVGYIGERCQYRDLKWWELRHAGHGQQQKVIVVAVCVVVLVMLLLLSLWGAHYYRTQKLLSKNPKNPYEESSRDVRSRRPADTEDGMSSCPQPWFVVIKEHQDLKNGGQPVAGEDGQAADGSMQPTSWRQEPQLCGMGTEQGCWIPVSSDKGSCPQVMERSFHMPSYGTQTLEGGVEKPHSLLSANPLWQQRALDPPHQMELTQ
modifications: Pro-epidermal growth factor
As for B1, the biological half-life result was “few minutes”.
